Results reported in publication PMC5161667 (Nature, 2016).
One block for each molecule: values may come before it.

Tests used:
[1] = biological target: ExbD_(E113C) (E. coli (K-12 strain)) (UniProt P0ABV2); assay: cross-linking
[2] = biological target: ExbD_(E113C) labeled with MTSL (E. coli (K-12 strain)) (UniProt P0ABV2); assay: DEER spectroscopy
[3] = biological target: ExbD_(N78C) labeled with MTSL (Ton subcomplex) (E. coli (K-12 strain)) (UniProt P0ABV2); assay: DEER spectroscopy
[4] = biological target: ExbD_(N78C) labeled with MTSL (fully assembled Ton complex) (E. coli (K-12 strain)) (UniProt P0ABV2); assay: DEER spectroscopy
crystal structure [5] = biological target: the molecule itself; assay: crystal structure
DEER spectroscopy = biological target: the molecule itself; assay: DEER spectroscopy
crystal structure [6] = biological target: the molecule itself; assay: crystal structure; remark: listed apart in the source

stoichiometry N [1]: 2
Molecule: ExbD_(E113C) (from UniProt P0ABV2 1-141) (natural protein)

stoichiometry N [2]: 2
Molecule: ExbD_(E113C) labeled with MTSL (from UniProt P0ABV2 1-141) (natural protein)

stoichiometry N [3]: 2
Molecule: ExbD_(N78C) labeled with MTSL (Ton subcomplex) (from UniProt P0ABV2 1-141) (natural protein)

stoichiometry N [4]: 2
Molecule: ExbD_(N78C) labeled with MTSL (fully assembled Ton complex) (from UniProt P0ABV2 1-141) (natural protein)

B1: ExbB (natural protein, E. coli (K-12 strain), UniProt P0ABU7 1-244, looked up)
chain: MGNNLMQTDLSVWGMYQHADIVVKCVMIGLILASVVTWAIFFSKSVEFFNQKRRLKREQQLLAEARSLNQANDIAADFGSKSLSLHLLNEAQNELELSEGSDDNEGIKERTSFRLERRVAAVGRQMGRGNGYLATIGAISPFVGLFGTVWGIMNSFIGIAQTQTTNLAVVAPGIAEALLATAIGLVAAIPAVVIYNVFARQIGGFKAMLGDVAAQVLLLQSRDLDLEASAAAHPVRVAQKLRAG
stoichiometry N (crystal structure [5]): 5

B2: ExbB labeled at C25 with MTSL (natural protein, E. coli (K-12 strain), UniProt P0ABU7 1-244, looked up)
chain: MGNNLMQTDLSVWGMYQHADIVVKCVMIGLILASVVTWAIFFSKSVEFFNQKRRLKREQQLLAEARSLNQANDIAADFGSKSLSLHLLNEAQNELELSEGSDDNEGIKERTSFRLERRVAAVGRQMGRGNGYLATIGAISPFVGLFGTVWGIMNSFIGIAQTQTTNLAVVAPGIAEALLATAIGLVAAIPAVVIYNVFARQIGGFKAMLGDVAAQVLLLQSRDLDLEASAAAHPVRVAQKLRAG
modifications: MTSL spin label on Cys25 (50% labeling efficiency)
stoichiometry N (DEER spectroscopy): 5

B3: ExbB_(C25S), selenomethionine-substituted (natural protein, E. coli (K-12 strain), UniProt P0ABU7 1-244, looked up)
chain: MGNNLMQTDLSVWGMYQHADIVVKSVMIGLILASVVTWAIFFSKSVEFFNQKRRLKREQQLLAEARSLNQANDIAADFGSKSLSLHLLNEAQNELELSEGSDDNEGIKERTSFRLERRVAAVGRQMGRGNGYLATIGAISPFVGLFGTVWGIMNSFIGIAQTQTTNLAVVAPGIAEALLATAIGLVAAIPAVVIYNVFARQIGGFKAMLGDVAAQVLLLQSRDLDLEASAAAHPVRVAQKLRAG
modifications: selenomethionine-substituted
stoichiometry N (crystal structure [6]): 5
